Measured values from PMC10801922 (Proceedings of the National Academy of Sciences of the …, 2024).

Tests used:
[1] = target: SARS-CoV-2 Delta (B.1.617.2) receptor-binding domain (SARS-CoV-2 Delta (B.1.617.2), strain)
[2] = target: T1, SARS-CoV-2 G614 (wild-type) receptor-binding domain (SARS-CoV-2, UniProt P0DTC2)
[3] = target: SARS-CoV-2 Alpha (B.1.1.7) receptor-binding domain (SARS-CoV-2 Alpha (B.1.1.7), strain)
[4] = target: T1, SARS-CoV-2 G614 (wild-type) …; test: ELISA; settings: both partners purified

Binder	binding result [1]	Kd [2] [nM]	binding result [3]	binding result [4]
rmAb23 (antibody, V domains shown) VH: EVQLVESGGGLIQPGGSLRLSCAASGFTVSSNYMSWVRQAPGKGLEWVAVIYSGGSTDYADSVKGRFTISRDNSKNTLHLQMNSLRAEDTAVYYCARDLVVYGMDVWGQGTTVTVSS VL: DIQLTQSPSFLSASVGDRVTITCRASQGISSYLAWYQQKPGKAPKLLIYAASTLQSGVPSRFSGSGSGTEFTLTISSLQPEDFATYYCQQLNSYPLTFGPGTKVDIK	binds	6.5	binds	–
01A05 (antibody, V domains shown) VH: QVQLVQSGAEVKKPGASVKVSCKASGYTFTSYGISWVRQAPGQGLEWMGWISADNGNTNYAQKLQGRVTMTTDTSTSTAYMELRSLRSDDTAVYYCARVPMFVVPNCSGGGCYRRAWEAGLDVWGQGTTVTVSS VL: DIQMTQSPSSLSASVGDRVTITCRASQSISNYLNWYQQRPGRAPKLLIYTTSNLQSGVPSRFSGSGSGTDFTLTISSLQPEDFATYFCQQSFTGTFGGGTKVEIK	binds	2.5	binds	–
XG014 IgG (antibody, V domains shown, also called parental IgG; source: recombinant) VH: EVQLVQSGAEVKKPGESLKISCKGSGYSFSNYWIGWVRHMPGKGLEWMGIIYPGDSDTRYSPSFQGQVTISVDTSISTAYLQWSSLKASDTAMYYCTRHQYGYNYGYFYYYIDVWGKGTTVTVSS VL: QSVLTQPPSVSAAPGQKVTISCSGSSSNIGNNPVSWYRQVPGTAPKLLIYDNNKRPSGIPDRFSGSKSGASATLGITGLQTGDEADYYCGTWHTSLSSGVFGGGTKLTVL	–	–	–	binds
